Test results: US7115556B2, “Use of anti-prolactin agents to treat proliferative conditions” (Greenville Hospital System, priority 1998, dated 2006)

Assays:
[1] = system: tyrosine phosphorylation of STAT proteins in T47-D cells; test: Tyrosine phosphorylation of STAT proteins in T47-D cells (Example 10); type: cell-based, human
Experimental: Tyrosine Phosphorylation of STAT Proteins in T47-D cells. This assay is designed to examine the effects of HPRL and hPRL-G129R on signal transduction using T47-D cells as model target cells. Briefly, T47-D cells were plated in 12-well plates. After pre-incubation in serum-free medium for 2–3 hours, cells were exposed to various concentrations of hPRL or hPRL-G129R or a combination of hPRL and hPRL-G129R in serum-free medium. The cells were incubated for 15 min at 37° C., washed once with PBS, and lysed in 200 μl lysis buffer (50 mM Tris-HCl, pH 6.8, 1% SDS, 1% β-mecaptoethanol, 0.1M DTT, 5% sucrose, 100 μM sodium orthovanadate, and 0.6% bromophenol blue). Thirty microliters of cell lysate are then subjected to 4–12.5% SDS-PAGE using the Bio-Rad Protein II system. After electrophoresis, the gels were transferred to a Hybond-ECL membrane (Amersham, Ill.) at 100 volts constant voltage for 2 hrs. Blots were incubated in a blocking solution of 4% BSA (Boehringer Mannheim, Ind.) in rinsing buffer (10 mM Tris-HCl pH 7.5, 75 mM NaCl, 0.1% Tween 20, 1 mM EDTA) for 2 hrs and subsequently washed twice with rinsing buffer for 15 min. Blots were incubated with horseradish peroxidase (HRP)-conjugated antiphosphotyrosine antibody PY20 (Amersham, Ill.) at a concentration of 0.1 μg/ml in the blocking solution for 1 hr. […] Blots were then exposed to X-ray film and developed using standard procedures (Kodak, Rochester, N.Y.).

[2] = system: T47D human breast cancer cells; test: Cell proliferation assay, cell counting; type: cell-based; details: FIGS. 5A-B
Experimental: Cell proliferation assays. hPRLA was tested for its ability to inhibit breast cancer cell proliferation in tissue culture. The human breast cancer cells were grown in corresponding culture media according to ATCC recommendations. Cells were maintained at 37° C. in a humidified atmosphere of 5% CO2 in air. The assay conditions were essentially as described by Ginsburg and Vonderharr (1995, Cancer Res. 55:2591–2595). For individual growth experiments, cells were plated in 12 well culture plates at a density of approximately 2×10^4 /ml, 1 ml/ well. Cells were then allowed to attach for one day (T-47D, MCF-7, HTB19, and HTB20 cells, except for HTB 123, which is a suspension cells), then the overlying media was removed and changed to serum-free conditions with media containing ITS^+ (insulin-transferring-selenium-BSA-linoleic acid culture supplement; Collaborative Research Bedford, Mass.). Varying concentrations of hPRL alone or in combination with hPRLA were introduced. After an additional three days in culture, cells were harvested after brief trypsinization and counted in a cell counter.

T47-D cells = test: Co-culture with L-G129R cells, T47-D; type: cell-based, human; details: T47-D co-cultured with L-G129R cells
Text: (§1) The co-culture experimental set-up provides a sustained presence of biologically active hPRL-G129R, thereby resulting in a maximal response in these tumor cells.

MCF-7 cells [3] = test: Co-culture with L-G129R cells, MCF-7; type: cell-based, human; details: MCF-7 co-cultured with L-G129R cells; more hPRL-G129R required than for T47-D
Text: as §1

[4] = system: T-47D human breast cancer cells; test: TUNEL assay, T-47D; type: cell-based
Experimental: (§2) Cell Culture. T-47D cells obtained from ATCC were grown in RPMI 1640 (phenol red free), supplemented with 10% FBS (GIBCO BRL). BT-474 cells were grown in RPMI 1640 medium (phenol red free) supplemented with 10% FBS and ATCC recommended supplements. MCF-7 cells were grown in DMEM medium (phenol red free), supplemented with 10% FBS. The cells were grown at 37° C. in a humid atmosphere in the presence of 5% CO2. The MDA-MB-134 cells were grown in Leibovitz's L-15 medium supplemented with 20% FBS and grown in CO2 free atmosphere. The breast cancer cells were trypsinized (0.02% Trypsin—EDTA) and grown in their respective media (phenol red free) supplemented with 10% CSS (Charcoal stripped serum) for a week. Subsequently the cells were trypsinized again and plated onto an 8 chambered slide system (Lab Tek II) at a confluence of 60–70% per chamber. The next day treatments were performed on the breast cancer cells using their respective media(phenol red free), supplemented with 1% CSS. The MDA-MB-134 VI cells were grown in phenol red containing medium, but with the same serum conditions as the other breast cancer cells.
(§3) Terminal deoxynucleotidly transferase mediated dUTP nick end labeling (TUNEL) assay. Nicks of the fragmented DNA are labeled at their 3-OH ends. The fluorescein-labeled dUTP is incorporated at the 3-OH ends by using the enzyme terminal deoxynucleotidyl transferase. After the assigned period of treatment the chambers were dismantled as per the manufacturer's instructions and the TUNEL assay (Apoptosis detection system, Fluorescein- Promega) was performed as per the manufacturer's instructions. The slide was examined under a FITC filter using an Olympus IX 70 microscope system.

BT-474 cells = test: TUNEL assay, BT-474; type: cell-based, human
Experimental: as §2, §3

MCF-7 cells [5] = test: TUNEL assay, MCF-7; type: cell-based, human; details: 250 ng G129R, 24 hours
Experimental: as §2
Terminal deoxynucleotidly transferase mediated dUTP nick end labeling (TUNEL) assay. Nicks of the fragmented DNA are labeled at their 3-OH ends. The fluorescein-labeled dUTP is incorporated at the 3-OH ends by using the enzyme terminal deoxynucleotidyl transferase. […]

[6] = system: T47-D human breast cancer cells; test: Light microscopic examination of T47-D cells; type: cell-based; details: single dose 200 ng/ml, 4-day incubation
Experimental: FIGS. 14A–E. Light microscopic examination of T47-D human breast cancer cells after single dose of 200 ng/ml hPRL (15B); 200 ng/ml of HPRL-G129R (15C); 200 nM of E2 (15D); or 200 nM of 4-OH-Tamoxifen (15E) treatment after 4-day incubation as compared to control (15A).×200.
Human Breast Cancer Cell Proliferation Assays. Human PRL and hPRL-G129R were tested further for their ability to stimulate/inhibit breast cancer cell proliferation in cell culture. Light microscopic examination of breast cancer cell proliferation after hPRL, hPRL-G129R, E2 and 4-OH-Tamoxifen is shown in FIGS. 14A–E. It is clear that there is a significant difference in cell density between hPRL (15B), hPRL-G129R(15C) and E2 (15D), 4-OH-Tamoxifen (15E) treated cells.

B1: hPRL-G129R: variant of human prolactin having a substitution of the glycine at position 129 with an arginine residue; prolactin receptor antagonist (protein)
chain: LPICPGGAARCQVTLRDLFDRAVVLSHYIHNLSSEMFSEFDKRYTHGRGFITKAINSCHTSSLATPEDKEQAQQMNQKDFLSLIVSILRSWNEPLYHLVTEVRGMQEAPEAILSKAVEIEEQTKRLLERMELIVSQVHPETKENEIYPVWSGLPSLQMADEESRLSAYYNLLHCLRRDSHKIDNYLKLLKCRIIHNNNC
Question: For B1, which “inhibition of STAT protein phosphorylation induced by hPRL” value ([1]; 5:1 ratio (500 ng/ml hPRL-G129R, 100 ng/ml hPRL)) is on record?
Answer: completely inhibited

Question: What about the “stimulating STAT protein phosphorylation” value ([1]; T47-D cells, hPRL-G129R alone (100 ng/ml, FIG. 13)) of the same molecule?
Answer: not active

Question: And the “block of signal transduction (STAT phosphorylation) induced by hPRL” value ([1]; added together with hPRL)?
Answer: block the signal transduction induced by hPRL in a dose dependent manner

Question: What about the “proliferation of T47D cells relative to untreated control cultures” value [2] of the same molecule?
Answer: comparable inhibitory effect

Question: What about the “inhibition of cell proliferation in co-culture” value (T47-D cells) of the same molecule?
Answer: Complete inhibition

Question: And the “inhibition of cell proliferation in co-culture” value (MCF-7 cells [3])?
Answer: Complete inhibition

Question: And the “DNA fragmentation after 2 hours of treatment” value ([4]; 50 ng/ml, 2 hours)?
Answer: apparent

Question: What about the “apoptosis at physiological concentration” value ([4]; 50 ng/ml, 24 h) of the same molecule?
Answer: apoptosis occurs

Question: And the “induction of apoptosis DNA fragmentation” value ([4]; 250 ng G129R, 24 hours)?
Answer: induced apoptosis

Question: What about the “competition between G129R and hPRL on DNA fragmentation” value ([4]; 1:1 ratio (125 ng/ml each)) of the same molecule?
Answer: able to compete with hPRL

Question: What about the “apoptosis (DNA fragmentation), dose response” value ([4]; 24 h treatment) of the same molecule?
Answer: induced apoptosis in a dose dependent manner

Question: And the “induction of apoptosis DNA fragmentation” value (BT-474 cells; 250 ng G129R, 24 hours)?
Answer: induced apoptosis

Question: What about the “apoptosis and hPRL competition, as in T-47D” value (BT-474 cells; BT-474 cells) of the same molecule?
Answer: same results

Question: What about the “induction of apoptosis DNA fragmentation” value (MCF-7 cells [5]) of the same molecule?
Answer: induced apoptosis

Question: What about the “overall cell condition under light microscopy” value [6] of the same molecule?
Answer: not as healthy
